Data as given in publication PMC12507022, “Widespread distribution of BpfA-mediated bisphenol F degradation among members of the Pseudomonadota and Actinomycetota” (The ISME Journal, 2025).

Columns and labels:
Assay in all cases: HPLC, Michaelis-Menten fit
Conditions in all cases: 20 mM Tris-HCl pH 8.0, 30 °C, O2 as electron acceptor
[1] = substrate: COc1cc(CO)ccc1O; assay type: biochemical, Penicillium simplicissimum
[2] = substrate: Oc1ccc(Cc2ccc(O)cc2)cc1; assay type: biochemical, Penicillium simplicissimum
[3] = substrate: COCc1ccc(O)cc1; assay type: biochemical, Penicillium simplicissimum
[4] = substrate: CCCc1ccc(O)c(OC)c1; assay type: biochemical, Penicillium simplicissimum
[5] = substrate: COc1cc(CO)ccc1O; assay type: biochemical, Rhodococcus jostii
[6] = substrate: Oc1ccc(Cc2ccc(O)cc2)cc1; assay type: biochemical, Rhodococcus jostii
[7] = substrate: COCc1ccc(O)cc1; assay type: biochemical, Rhodococcus jostii
[8] = substrate: CCCc1ccc(O)c(OC)c1; assay type: biochemical, Rhodococcus jostii

B1: VAO (Penicillium simplicissimum) (protein)
chain: MSKTQEFRPLTLPPKLSLSDFNEFIQDIIRIVGSENVEVISSKDQIVDGSYMKPTHTHDPHHVMDQDYFLASAIVAPRNVADVQSIVGLANKFSFPLWPISIGRNSGYGGAAPRVSGSVVLDMGKNMNRVLEVNVEGAYCVVEPGVTYHDLHNYLEANNLRDKLWLDVPDLGGGSVLGNAVERGVGYTPYGDHWMMHSGMEVVLANGELLRTGMGALPDPKRPETMGLKPEDQPWSKIAHLFPYGFGPYIDGLFSQSNMGIVTKIGIWLMPNPRGYQSYLITLPKDGDLKQAVDIIRPLRLGMALQNVPTIRHILLDAAVLGDKRSYSSRTEPLSDEELDKIAKQLNLGRWNFYGALYGPEPIRRVLWETIKDAFSAIPGVKFYFPEDTPENSVLRVRDKTMQGIPTYDELKWIDWLPNGAHLFFSPIAKVSGEDAMMQYAVTKKRCQEAGLDFIGTFTVGMREMHHIVCIVFNKKDLIQKRKVQWLMRTLIDDCAANGWGEYRTHLAFMDQIMETYNWNNSSFLRFNEVLKNAVDPNGIIAPGKSGVWPSQYSHVTWKL
notes: synthetic gene, expressed and purified like BpfA (E. coli, Ni-NTA); contains flavin
Km [1]: 140 ± 12.3 µM
kcat [1]: 6.0 ± 0.2 s⁻¹
kcat/Km [1]: 42.9 b
Km [2]: 205.6 ± 18.5 µM
kcat [2]: 0.05 ± 0.001 s⁻¹
kcat/Km [2]: 0.2 b
Km [3]: 72.0 ± 7.1 µM
kcat [3]: 3.9 ± 0.009 s⁻¹
kcat/Km [3]: 54.2 a
Km [4]: 71.4 ± 11.6 µM
kcat [4]: 5 ± 0.02 s⁻¹
kcat/Km [4]: 70.4 b

B2: EUGO (Rhodococcus jostii RHA1) (protein)
chain: MTRTLPPGVSDERFDAALQRFRDVVGDKWVLSTADELEAFRDPYPVGAAEANLPSAVVSPESTEQVQDIVRIANEYGIPLSPVSTGKNNGYGGAAPRLSGSVIVKTGERMNRILEVNEKYGYALLEPGVTYFDLYEYLQSHDSGLMLDCPDLGWGSVVGNTLDRGVGYTPYGDHFMWQTGLEVVLPQGEVMRTGMGALPGSDAWQLFPYGFGPFPDGMFTQSNLGIVTKMGIALMQRPPASQSFLITFDKEEDLEQIVDIMLPLRINMAPLQNVPVLRNIFMDAAAVSKRTEWFDGDGPMPAEAIERMKKDLDLGFWNFYGTLYGPPPLIEMYYGMIKEAFGKIPGARFFTHEERDDRGGHVLQDRHKINNGIPSLDELQLLDWVPNGGHIGFSPVSAPDGREAMKQFEMVRNRANEYNKDYAAQFIIGLREMHHVCLFIYDTAIPEAREEILQMTKVLVREAAEAGYGEYRTHNALMDDVMATFNWGDGALLKFHEKIKDALDPNGIIAPGKSGIWSQRFRGQNL
notes: as for B1
Km [5]: 89.6 ± 11.3 µM
kcat [5]: 5.9 ± 0.3 s⁻¹
kcat/Km [5]: 65.8 a
Km [6]: 185.1 ± 11.3 µM
kcat [6]: 0.04 ± 0.003 s⁻¹
kcat/Km [6]: 0.2 b
Km [7]: 73.2 ± 1.5 µM
kcat [7]: 4.1 ± 0.01 s⁻¹
kcat/Km [7]: 56.0 a
Km [8]: 59.3 ± 0.7 µM
kcat [8]: 4.8 ± 0.002 s⁻¹
kcat/Km [8]: 80.9 b
